# Biological target: KV4-1 Id proteins
# Experiment: ELISA
binder,measurement,value
"mAb clone 12C3 (antibody, V domains shown) VH: EVKLVESGGGLVQPGGSLSLSCAASGFTYTDYYMNWVRQPPGKALEWLALIRNKANGYTTEYSASLKGRFTISRDNSQSILYLQMNALRAEDSATYYCVRENINYYFDYWGQGTTLTVSS VL: DIVLTQSPASLAVSLGQRATISCRASESVEYFGASLMQWYQQKSGQPPKLLIRAATNVESGVPARFSGSGSGTDFSLNIHPVEEDDIAMYFCQQSRKVPWTFGGGTKLEIKR",KV4-1 Id proteins recognized / tested (of 41 Id proteins),35
